According to US20140294898A1 (published 2014):
Positions of bridges follow the written chain, without caps; N, C: chain ends. Non-standard residues stand in square brackets, D forms with d. NMeNle = CCCC[C@H](NC)C(=O)O; NMeA = CN[C@@H](C)C(=O)O

Tests used:
[1] = target: T1, hPDL1(19-239)-TVMV-His (recombinant human PD-L1-TVMV-His) (UniProt Q9NZQ7 19-239); experiment: HTRF PD-1/PD-L1 binding inhibition
[2] = target: T1, hPDL1(19-239)-TVMV-His (recombinant …); experiment: HTRF competition with biotinylated Compound No. 71
human PD-L1 on cells = human PD-L1 on cells (human, UniProt Q9NZQ7 19-290); experiment: cell binding assay, blocking of PD-1-Ig (PE) to LK35.2-hPD-L1 cells
human PD-L1 on cells, sequence (Q9NZQ7 19-290): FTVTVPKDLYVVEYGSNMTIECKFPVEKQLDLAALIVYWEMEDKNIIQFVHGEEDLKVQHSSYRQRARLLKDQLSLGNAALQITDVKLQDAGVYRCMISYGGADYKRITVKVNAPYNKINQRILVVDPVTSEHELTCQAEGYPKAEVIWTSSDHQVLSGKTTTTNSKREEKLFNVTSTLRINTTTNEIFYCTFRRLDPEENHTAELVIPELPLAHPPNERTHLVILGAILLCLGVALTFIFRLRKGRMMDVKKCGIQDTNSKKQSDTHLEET

T1 sequence (Q9NZQ7 other isoform, or with tags, fused parts or gaps): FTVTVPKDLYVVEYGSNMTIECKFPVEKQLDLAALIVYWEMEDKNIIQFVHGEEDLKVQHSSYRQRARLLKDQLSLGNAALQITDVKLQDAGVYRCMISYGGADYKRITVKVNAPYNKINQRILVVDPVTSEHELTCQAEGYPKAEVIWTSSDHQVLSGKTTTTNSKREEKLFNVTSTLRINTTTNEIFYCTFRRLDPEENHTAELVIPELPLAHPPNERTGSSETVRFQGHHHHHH

For {CH2CO}-FLIVIRDRVFRCG-NH2 (thioether N-12) [Compound No. 99], the IC50 [1] was 90 nM, the IC50 [2] was 4310 nM and the IC50 (human PD-L1 on cells) was 133 nM.

B1: Compound No. 2 (peptide)
peptide: {CH2CO}-F[NMeA]NPHHSWRW[NMeNle][NMeNle]LCG-NH2
modifications: thioether N-14
SMILES: CCCC[C@H]1C(=O)N(C)[C@@H](CCCC)C(=O)N[C@@H](CC(C)C)C(=O)N[C@H](C(=O)NCC(N)=O)CSCC(=O)N[C@@H](Cc2ccccc2)C(=O)N(C)[C@@H](C)C(=O)N[C@@H](CC(N)=O)C(=O)N2CCC[C@H]2C(=O)N[C@@H](Cc2c[nH]cn2)C(=O)N[C@@H](Cc2c[nH]cn2)C(=O)N[C@@H](CO)C(=O)N[C@@H](Cc2c[nH]c3ccccc23)C(=O)N[C@@H](CCCNC(=N)N)C(=O)N[C@@H](Cc2c[nH]c3ccccc23)C(=O)N1C
With B1 the IC50 [1] was 14 nM, the IC50 [2] was 584 nM and the IC50 (human PD-L1 on cells) was 40 nM.

B2: Compound No. 71 (peptide)
peptide: FFXGDVFYGWYLCG
HELM: PEPTIDE1{[O=C(C[*:3])[*:2]].F.[meF].[CCCC[C@@H](C(=O)[*:2])N(C)[*:1]].[Sar].D.V.[meF].Y.[Sar].W.Y.L.C.G.[am]}$PEPTIDE1,PEPTIDE1,1:R3-14:R3$$$V2.0
SMILES: CCCC[C@H]1C(=O)N(C)CC(=O)N[C@@H](CC(=O)O)C(=O)N[C@@H](C(C)C)C(=O)N(C)[C@@H](Cc2ccccc2)C(=O)N[C@@H](Cc2ccc(O)cc2)C(=O)N(C)CC(=O)N[C@@H](Cc2c[nH]c3ccccc23)C(=O)N[C@@H](Cc2ccc(O)cc2)C(=O)N[C@@H](CC(C)C)C(=O)N[C@H](C(=O)NCC(N)=O)CSCC(=O)N[C@@H](Cc2ccccc2)C(=O)N(C)[C@@H](Cc2ccccc2)C(=O)N1C
With B2 the IC50 [1] was 1 nM, the IC50 [2] was 83 nM and the IC50 (human PD-L1 on cells) was 1 nM.
